Patent US11214614B2, “LTBP complex-specific inhibitors of TGFβ and uses thereof” (Scholar Rock, Inc., priority 2019, dated 2022)

Test system: male C57BL/6J mice on CDHFD (liver fibrosis)
Test: Choline-deficient high fat diet (CDHFD) model of mouse NASH, liver hydroxyproline content
Assay type: in vivo
Settings: 15 mg/kg twice a week i.p., weeks 4 through 12 of CDHFD
Description: The Choline deficient high fat diet (CDHFD) is an established diet-induced model of Non-Alcoholic steatohepatitis (NASH). In this model, male C57BL/6J mice are fed a choline deficient, 0.10% Methionine, high fat diet for 12 weeks. Three to six weeks after the start of the CDHFD, activation of pro-fibrotic processes can be detected through increased expression of α-smooth muscle actin (α-SMA) protein, a marker for activation of hepatic stellate cells, and elevated tissue hydroxyproline content reflecting increased collagen synthesis and deposition (Matsumoto et. al, Int J Exp Pathol. 2013 April; 94(2):93-103).
LTBP complex-specific antibodies were tested for their ability to inhibit and/or reduce the extent of liver fibrosis in mice in the CDHFD model as follows. An outline of the study is shown below in Table 21.
Animals in the test cohorts were on the CDHFD for the duration of the study. A separate cohort of mice (Group 1) were administered a regular chow diet as a study control. Antibodies SR-AB42 and SR-AB31 were administered to mice by intraperitoneal (i.p.) injection beginning at 4 weeks post start of the CDHFD. Animals were dosed at antibody test concentrations 15 mg/kg twice a week (i.e., 30 mg/kg/week) for a test duration of 8 weeks (i.e., weeks 4 through 12). […] Endpoint readout was hydroxyproline content. […]

B1: SR-AB42: cycle 3 antibody, lineage SR-AB23; CDRs SEQ ID NO: 166-171; HCVR SEQ ID NO: 318, LCVR SEQ ID NO: 319 (antibody, V domains shown)
VH: QVQLVESGGGVVQPGRSLRLSCAASGFTFRSYVMHWVRQAPGKGLEWVAVISHEGSLKYYADSVKGRFTISRDNSKNTLYLQMNSLRAEDTAVYYCARPRIAARRGGFGYWGQGTLVTVSS
VL: NFMLTQPHSVSESPGKTVTISCTRSSGNIDNNYVQWYQQRPGSSPTTVIYEDNQRPSGVPDRFSGSIDSSSNSASLTISGLKTEDEADYYCQSYDYDTQGVVFGGGTKLTVL
  Hydroxyproline (HYP) in liver tissue: inhibited the increase in HYP
